The values below come from the DeepSol protein solubility set.

This data set in a line: soluble on expression in E. coli; label from the status in PepcDB or PDB records.
With “MPVTEVGSLPELNNILERSDANRLIIIDFFANWCGPCRMISPIFEQFSAEYGNATFLKVNCDVARDIVQRYNISAMPTFIFLKNRQQVDMVRGANQQAIAEKIRQHYSPTPANPNAASDSEKRFLEQFVKCSNVPRSYQDEVFKALARSVMPEELVGRAMTEGPRDEKAILKDLLHWFKTQFFTWFDRPTCPKCTLKCSTDGLQGTPTREEQKEGGASRVEVYICDGCNTEMRFPRYNNPAKLLQTRTGRCGEWANCFGLLLAALNLESRFIYDTTDHVWNEVYLLAEQRWCHVDPCENTMDRPLLYTRGWGKTLGYCIGYGSDHVVDVTWRYIWDSKKLVTQRNEVRQPVFENFLSKLNSRQAEGQTEPRKRELAVRRVCELMEMMAQEAKNHKIGWEKIGDDLGGRITGSEEWRRERGELGESGPKLLAEPIKLAPPTGPAQNYLEFNYDVITDTYSQPPEIGFSAQAFELENVQRVEETDWNMTYLCRKRGDAPGNISWHFDLKSLKKSIEKIEIRMAGIQKFEKGKAMAIACLGDSCMRLPIDCSALTIEDPKNAEILKITATLSGGEGAIGFQQAQIFRTELKRGGGARTESFSVKIWMKN”, the “soluble on expression in E. coli” value is “not soluble”.

Consider “MGSDKIHHHHHHMKKRFKYRTLEEMRWEAITLGIDLPLSGDFDVFRDLVDLGSKTIPNRFVDQPMEGNDAQLDGTPGPLTLRRYRKLAEGGAGVIWVEAIAVSREARGNDRQLMLTEETVNSFRSFVAEIKSVSLKTKNFEPYIVAQLTHPGRFGKNRKILFHDKFLDEKYGITEDFPLMSDEELDSLKEQYLRAAKFAKTAGFDAVDIKACHRYLLSELLAAHTREGKYGGSYENRTKLLKDIVRLVRKEVEIDITVRLNLSDFIPYPYGWGSTEEGTLDFTEPGRLLKELEELGVKIINVTASTPYLKPHINRPYDEMGKYNPPEHPIVGAMRLLNLAKLAKETLSKTLVVASGFTWFRQFAPYVAAGMLKNGWCDFVGFGRMTFAYPDYPKDILTKGELDPKKVCITCNKCAELKAAGESCGCVVRDGEVYLPIYRKMEESKKS”, for which the “soluble on expression in E. coli” value was “not soluble”.

Consider “MAKIPVLEIFGPTIQGEGRVIGRKTMFVRTAGCDYRCSWCDSAFTWDGSAKEDIKLMTAEEIYDALLEIGGHRFNHVTISGGNPALIKGIQELVDLFEDKHIYTALETQGSRFQSWMTQIDDLTISPKPPSSGMKTNLEILDSVINQCTFHSLNLKVVIFDDADYDFAKLIHHRYPNIPFYLQVGNPYLDDNVDQHTDKLLERYEQLVDRVMQSSDMNHVYVLPQLHTLLWSNKKGV”, for which the “soluble on expression in E. coli” value is on record as “not soluble”.

Regarding “MGTRCAVTPELRFVLAFPDVYEVGMSHLGLQILYGVLNTLDGVAAERAYAPWPDREAQLRAEGIPLATLESGTSLDRADIVGFTLQYELSYTNILNMLDLAGIPLLASERDERHPLIIGGGPCACNPEPLADFFDAFLLGDGEEAVIEIAEAFRAWKRAGGARSGLLERLAGIAGVYVPSFFAVRYGDNNRIAAVEPLRPDYGPVKRRFLAELEPAAYPTAPVVPFLKTIHDRVSVEISRGCTRGCRFCQAGYLYRPVRERSPEKILALVEETLRATGYDEISLLSLSTGDYGCLTPLLTELMARYASERIAVSLPSMRVGSLNDELVEAIRTVRKTGFTLAPEAGSERLRRVINKGISEEDLLRNAFEAYSHGWRLIKLYFMIGLPGETEEDLHGIVELARKVKMEGRRAGSGGEVNVSVSTFVPKAHTPFQWEPQIPVGEILEKQGLLRRELRARKLVFKWHDAPLSFMEGVFARGDRRLGAALRRAWELGCRFDGWGDRFDEAAWRTAFEETGIDPAFYHRRREPDEVLPWGHLDFGVTREFLLRELELSRQGAATEDCRTGRCTGCGVCDFSQVRLRLADDGLEHHHHHH”, the “soluble on expression in E. coli” value is on record as “not soluble”.

On to “MSSNTTEHGEHFNESIVNEVILEDMKKNRIDHMKYLPGMETMEESDVMEQVITAMNAYDYDKYTEKDVRRALEHDNRTVEDFQALLSPAALPLLEEIAQAARVETRKHFGNSVYMFTPIYIANYCENYCIYCGFNCHNKIRRAQLNAEEIDKEMAAIAKTGLQEILILTGESRIKSDVKYIGEACKIARKYFKVIGLEVYPMNSDEYHYLHECGADYVTVFQETYNSDKYETLHLAGHKRIFPYRLNAQERALKGGMRGVGFAALLGLDDFRKDAFATGYHAWLLQRKYPHAEIAFSCPRLRPIINNDRINPMDVHEPQLLQVVCAYRLFMPFASITVSTRECERVRDNLVNIAATKISAGVSTGIGSHVEDIEDKGDDQFEISDGRSVDEVYQALLNHDLQPVMNDYVYL”, for which the “soluble on expression in E. coli” value is given as “not soluble”.

Consider “MVGQVIRKRGAYPEYTVEDVLAVIFLLKEPLGRKQISERLELGEGSVRTLLRKLSHLDIIRSKQRGHFLTLKGKEIRDKLLSMFSEPIGVSVDGYPGIAIVVKNPPEFKSIELRDEAIKFDAKGAMILTVKDNEIVFPEDFRPLKEMYPEVAKKIVDYEDGDAVIITWAETPAKALKSAIHVAYILKKEEITPEILEVVK”, for which the “soluble on expression in E. coli” value is reported as “soluble”.

Regarding “VKSNAQIDSVKCFSTMNDEEIVEDSRAGDDRALEYLINKYKGFVRAKARTYFLIGADREDIIQEGMIGLYKAIRDFRKDKLSSFRAFAELCITRQIITAIKTATRQKHIPLNSYVSLNKPIFDEESDRTLMDIISEESINDPEEMVINREEFSGIEAKMGEILSSLECEVLTSYLQGKSYQEIAVELDRHVKSIDNALQRVKRKLEKYLEESRI”, the “soluble on expression in E. coli” value was “soluble”.

For the sequence “MFSTVFVAGYGNSTEGHWQNSWCKITKNSYWVEQEDWNNPNCVDWIESLNALVQSIDGPILLVSHSLGGSTIVEWSKKYSANIIGAFMVAVPDVQCEHFPKEISGYQLPPLEKLPFPSMLLASTNDPYSTLDRSKYFVDIWGSDLTIVGDLKHVNADSNIGEWSYGLNLLNKFITSIDS”, the “soluble on expression in E. coli” value is listed as “not soluble”.

Turning to “MIAAQLLAYYFTELKDDQVKKIDKYLYAMRLSDETLIDIMTRFRKEMKNGLSRDFNPTATVKMLPTFVRSIPDGSEKGDFIALDLGGSSFRILRVQVNHEKNQNVHMESEVYDTPENIVHGSGSQLFDHVAECLGDFMEKRKIKDKKLPVGFTFSFPCQQSKIDEAILITWTKRFKASGVEGADVVKLLNKAIKKRGDYDANIVAVVNDTVGTMMTCGYDDQHCEVGLIIGTGTNACYMEELRHIDLVEGDEGRMCINTEWGAFGDDGSLEDIRTEFDRAIDAYSLNPGKQLFEKMVSGMYLGELVRLILVKMAKEGLLFEGRITPELLTRGKFNTSDVSAIEKNKEGLHNAKEILTRLGVEPSDDDCVSVQHVCTIVSFRSANLVAATLGAILNRLRDNKGTPRLRTTVGVDGSLYKTHPQYSRRFHKTLRRLVPDSDVRFLLSESGSGKGAAMVTAVAYRLAEQHRQIEETLAHFHLTKDMLLEVKKRMRAEMELGLRKQTHNNAVVKMLPSFVRRTPDGTENGDFLALDLGGTNFRVLLVKIRSGKKRTVEMHNKIYAIPIEIMQGTGEELFDHIVSCISDFLDYMGIKGPRMPLGFTFSFPCQQTSLDAGILITWTKGFKATDCVGHDVVTLLRDAIKRREEFDLDVVAVVNDTVGTMMTCAYEEPTCEVGLIVGTGSNACYMEEMKNVEMVEGDQGQMCINMEWGAFGDNGCLDDIRTHYDRLVDEYSLNAGKQRYEKMISGMYLGEIVRNILIDFTKKGFLFRGQISETLKTRGIFETKFLSQIESDRLALLQVRAILQQLGLNSTCDDSILVKTVCGVVSRRAAQLCGAGMAAVVDKIRENRGLDRLNVTVGVDGTLYKLHPHFSRIMHQTVKELSPKCNVSFLLSEDGSGKGAALITAVGVRLRTEASS”, the “soluble on expression in E. coli” value is on record as “soluble”.

Turning to “MKTIWTGAIGFGLVNIPVKLFSATHESRLDLDMLDKKDHSNIKFQRVNAKTGKEVAWDNIVKGYKIEDDYVILDEKDFEKANAKKTKTIEILQFVQEDEIDSVYFETPYYIQPDKSGTRAYALLREALIKSKKVAVANYVLRNKEALAILKPVGNVIVLNKIRFQEEILDADALDLPAKSAIKEGEMKMALSLIDQLTETFDISKYKDTYTSELLKLIKAKAKGTVVKTKSAASKPTATKDLMAQLKASLQPTKRAAAR”, the “soluble on expression in E. coli” value is listed as “not soluble”.
